From patent US20090175847A1

Assays:
Aβ(1-42) fibrils (human) = Aβ(1-42) fibrils (human) (UniProt P05067); test: co-pelleting with Aβ(1-42) fibrils (20 h, 37 °C), SDS-PAGE, densitometry of the antibody heavy chain in pellet and supernatant
[1] = target: Aβ(1-42) globulomer (human) (UniProt P05067); test: dot blot densitometry; antigen: Aβ(1-42) globulomer
Aβ(1-42) monomer (human) [2] = test: dot blot densitometry; antigen: Aβ(1-42) monomer, 0.1% NaOH
Aβ(1-42) monomer (human) [3] = test: dot blot densitometry; antigen: Aβ(1-42) monomer, 0.1% NH4OH

Chain of Aβ(1-42) fibrils (human) (P05067 672-713 limits assumed): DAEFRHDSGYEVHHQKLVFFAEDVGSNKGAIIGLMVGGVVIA
Chain of Aβ(1-42) monomer (human) (peptide, as listed by the source): as the sequence (P05067 672-713 limits assumed) above
Chain of Aβ(1-42) globulomer (human) (P05067 672-713 limits assumed): as above

antibody bound to fibrils [%] (Aβ(1-42) fibrils (human)) | relation between recognition of Aβ(20-42) globulomer and the respective Aβ form [1] | relation between recognition of Aβ(20-42) globulomer and the respective Aβ form (Aβ(1-42) monomer (human) [2]) | relation between recognition of Aβ(20-42) globulomer and the respective Aβ form (Aβ(1-42) monomer (human) [3]) | Substance
9 |  |  |  | IgG2a antibody isotype control made against KLH (Keyhole Limpet Hemocyanin)
91 | 0.02 | 1 | 1 | mouse monoclonal antibody 6E10 (Signet No 9320)
